This is an account of results in the supplement of paper PMC12042874.

A short description of the data set: amyloid nucleation score (Sup35N fusion, yeast selection) (log enrichment); library NNK3; higher = more nucleation; inactive = no reads after selection. The procedure, abridged: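 DiMSum was used to calculate nucleation scores as log enrichment of output over input reads, centred on the mode score of non-aggregating sequences. Sequences with fewer than 100 input reads were not scored. Input and output came from Illumina sequencing of plasmid inserts in psi-negative yeast expressing peptides of 20 random codons fused to Sup35N, induced 24 hours with 100 μM copper sulfate and then grown 7 days at 30°C on medium lacking adenine and uracil.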

± gives the uncertainty stated by the source.

Take VNFVSFRP: the amyloid nucleation score result was “inactive”.
Next, MYGPMVWVDLYTCKTHRGAS: “inactive”; GVNWFSIQFNIWVLSRDADL: 3.36 ± 0.06.
As for VVCGANHLRIFFVNRVMWD, the amyloid nucleation score result is “inactive”.
With GCKEL, the amyloid nucleation score result is “inactive”.
The result for KDFIMHNILYMRRWAFTPLA reads “inactive”; that for LNVSRGWLVNILPYGCNI, “inactive”.
For the substance CGNHASVWRIGTVRKD, the amyloid nucleation score entry was “inactive”.
For the substance FSSLLTSDWRASCLGPYVNM, the amyloid nucleation score entry is “inactive”.
Next, IRSIM: “inactive”; IPVNYLASDMFN: “inactive”.
For LLVANG, the amyloid nucleation score result is “inactive”.
Next, RCWILISANHQKDFVSHIFY: 0.627 ± 0.36; MRFSKGNYLYMREGHKGFCG: “inactive”.
The result for RFWCLVVCTRLVHMENGRCS reads “inactive”; that for LVASSYS, “inactive”.
Next, ELLWNLRGNFDIDLGSFIRT: “inactive”; GKFNTCA: “inactive”.
KLYNLFWNVETMVERLLLVA: the amyloid nucleation score entry is “inactive”.
Next, IMSRMYDDSFADLVCKHAVD: “inactive”; IYSLYRCPFAVCLSSNWSCF: 1.78 ± 0.11.
Regarding LWVTM, the amyloid nucleation score is 1.37 ± 0.14.
Substance RVFYCNL displayed an amyloid nucleation score of 1.6 ± 0.059.
Next, MSLGFALVSILVCF: “inactive”; RNPWKFAATRFRLLQNPLVE: -0.185 ± 0.9; RMGLTEMWHVIPSITSRQYL: “inactive”.
The result for ELYVMLGDGAFVRAIKDYVS reads “inactive”; that for LNSMGYFILFYIYRFLENLD, “inactive”.
Next, LKFEVVMVLFSTIC: “inactive”; VTGEYLRMAISGCRG: “inactive”; SADNLDKFRLEMPVSLVRLN: “inactive”.
Regarding MVDSRLNSSLNYSLCLSDVK, the amyloid nucleation score entry was “inactive”.
Next, FWYSYQ: “inactive”; CMDYYKMYISYYFDAGWVLS: “inactive”; IPWCSPDGLVRRYHHKR: “inactive”.
For SSSCVSSGCDVWA, the amyloid nucleation score entry is “inactive”.
The result for QYICTLTCSYFLGSMTIEHK reads -0.022 ± 0.66.
Regarding PHHSRYAFYGNPTLAI, the amyloid nucleation score entry was “inactive”.
Next, MFGWRNSTLAVKAGSDTRLP: “inactive”.
Next, SLFSGVYSFYY: “inactive”; YLLLDYGTRSFLYDRYRYIR: 0.067 ± 0.68; ASHRGYRQRRKDVFHGIEA: “inactive”.
The result for LYLSLFGQVPYSS reads -0.473 ± 0.98; that for VVKAFYRARELGFRAGLRTD, “inactive”; that for TQPDLV, “inactive”.
As for LELGIYHLMERGIL, the amyloid nucleation score result was “inactive”.
Turning to WSGCMWSCARGYGSFPSGPL, the amyloid nucleation score entry is “inactive”.
As to VVIHRSSSISGT, the amyloid nucleation score result was “inactive”.
The result for LLGRSLH reads “inactive”; that for LYMSWAKTLFGECNCSHVLL, “inactive”; that for LAGTTSASWGGS, “inactive”.
As to LVGNHVSVAIISLVPLSFPH, the amyloid nucleation score amounted to 2.06 ± 0.067.
Next, WYWSSNPSGTDVGIDGVRIS: “inactive”.
On to FFCSGS, for which the amyloid nucleation score entry was “inactive”.
As for SFLSWVKYWERSCPDHSIWF, the amyloid nucleation score entry was “inactive”.
The result for SSFPYFTTYVHHVG reads “inactive”; that for GNVQIDASIKKSNGRWYGSV, -0.063 ± 0.31; that for KMQCPNYACGCKDCVYTNFY, “inactive”.
The result for TFGAVTCMSRCVKSSYNLKW reads 1.35 ± 0.088; that for NAEVALDHSSDLDS, “inactive”; that for IALGRFTCNGIVVVSF, “inactive”.
Next, KWRYLFDMSW: “inactive”; IFFVYLLSANIGCYEWDVVP: 0.821 ± 0.12.
Turning to WLVRMN, the amyloid nucleation score entry was “inactive”.
In the case of CFSTPCLCQSNELANIGSPT, the amyloid nucleation score result is “inactive”.
The result for LFRLKNRFEDKVGNSIRLWE reads “inactive”; that for LNSKSSLVPNMLWDMREHAI, 1.04 ± 0.12; that for LLVAYDQIFNF, “inactive”.
For ISCYLSDPVYS, the amyloid nucleation score is -0.493 ± 1.
Next, MTGLLMSKTARFCRRNR: “inactive”.
Next, RYKTMRRVTFKHSLNKKWVK: “inactive”.
Next, CTFQYSIIYRCYYRYGVVR: “inactive”; NNSAM: -0.178 ± 1.1.
Turning to FGVFGEIDIYCGW, the amyloid nucleation score entry was “inactive”.
Take NLKAM: the amyloid nucleation score result was “inactive”.
Turning to TASTQSPYHFYCRV, the amyloid nucleation score entry is “inactive”.
Next, NWTQSIFVGGQRDRLVISRT: “inactive”; ELNIN: “inactive”; LRYLIYTNYFRLFAWLNSCK: “inactive”.
Regarding TSRYIGL, the amyloid nucleation score entry was “inactive”.
Next, RVACFQIHGK: “inactive”.
Next, CNMPGLVDDFLCHGICNNVV: “inactive”; GAGWTQAIAFIQS: “inactive”; YCCIFRRFNGKNFFSCRG: “inactive”.
Next, CRCHRLVNIPSMFWCLKFVG: “inactive”; FGWVFLYDKLIPVKPFELYF: “inactive”.
MDLMPSYSTWKLFFKAI: the amyloid nucleation score entry was “inactive”.
The result for FGNFPSCE reads “inactive”.
Regarding VSLPSVIKYNDS, the amyloid nucleation score result is “inactive”.
Consider IFYVGNTLIFFIYMNWNRTY, for which the amyloid nucleation score worked out at 0.679 ± 0.24.
For the substance WFVSSWKNSHLKCGL, the amyloid nucleation score entry was “inactive”.
The result for CPHMKLFRLLI reads “inactive”; that for SLLFRSLIWSTFDPCSELGP, “inactive”; that for CMCRLEGRTSDLCQESGSCC, -1.13 ± 1.5.
Next, SIPPRMRCFLGCFWSISWDA: “inactive”.
As for VYRWVC, the amyloid nucleation score entry is “inactive”.
Next, GSGGYWFMINVPENKIWVYL: 1.72 ± 0.11; TNYYFALLGYYHLFSSTGHR: 2.66 ± 0.064; TISLHFLGTADKPYLSWVAN: “inactive”.
The substance IVVLWV returned an amyloid nucleation score of -0.341 ± 0.39.
The result for YDGQMVRVRLYPSWEQVYCV reads -1.1 ± 1.4.
Regarding RMNNLSGEQKQLCDLSLAVR, the amyloid nucleation score entry was “inactive”.
Next, MYDGKNWQLAQ: “inactive”; ELDCELMIALFLLWIVHANG: -0.657 ± 0.93; VVILHCKTYAMASRWYGYRG: -0.003 ± 0.81.
Next, FLCMMTVVYQFVWMMMQGAV: “inactive”.
As to GFNYVFDSGEFGDRSFWHIY, the amyloid nucleation score result was “inactive”.
As to CCRGRAFVGYLLQIIYVRGR, the amyloid nucleation score entry is “inactive”.
Next, SLALFFGIHPNLCFTDTSST: 0.559 ± 0.2.
The result for RIPKTKRYHPCYVRLRRSVY reads “inactive”; that for VIRPFVYGDNLVSSTTAMIF, “inactive”; that for LDACILRFARCLEGVDYADK, “inactive”.
SWFGGRDYYKMHIVSG: the amyloid nucleation score entry is “inactive”.
Next, SITRWFHTVMSIFKFYFEFD: “inactive”.
The result for HQWYG reads “inactive”.
Next, RVSGEMFASSL: “inactive”; MRVYFMWATTWLA: “inactive”.
With IDSDMDKNS, the amyloid nucleation score entry is “inactive”.
Next, LVMKQRLIMLYVKLNKAFLA: “inactive”.
Next, GASREFQTCSVGVYYVAIEK: “inactive”.
As for LDLFVV, the amyloid nucleation score result is “inactive”.
As for DQECRA, the amyloid nucleation score result was “inactive”.
Next, VFTSGLCEKS: 0.195 ± 0.72.
Regarding GYKDIDLTSERGK, the amyloid nucleation score result is “inactive”.
The result for RLSGNADYNNWTF reads 0.436 ± 0.67; that for GDMFGQPCRTCMFDLLKPVS, “inactive”.
As to AFNHCETDRLTCL, the amyloid nucleation score entry is “inactive”.
Consider NESISPFVTKRHPEFMRFNC, for which the amyloid nucleation score entry was “inactive”.
As to IPVQFFVQIRSGIVHFWHER, the amyloid nucleation score amounted to 1.81 ± 0.11.
The result for KPVFYGPIRCFISVCI reads 1.84 ± 0.09; that for SFLVSFTGVMLEFNCTCHLA, “inactive”; that for RGDVWLELKGLFAIFCYSEL, 2.96 ± 0.062.
The result for FSALWTRHKWNFPRMTTFAR reads “inactive”.
As to VYNLVDIESEPKVVFNGLFL, the amyloid nucleation score entry is “inactive”.
